Results from patent publication US20250304644A1, “PEPTIDES TRIPLE AGONISTS OF GIP, GLP-1 AND GLP-2” (BAINAN BIOTECH APS, priority 2021, published 2025).
Where a SMILES comes first, the peptide text is derived from it. Where no end group is shown, it is not given here. [ ]: non-standard residue; d: D form. The star is where a group is joined. Decanoyl = CCCCCCCCCC(=O)*; Aib = CC(C)(N)C(=O)O

T1: human GIPR (Homo sapiens, UniProt P48546)
T1 construct: host or cells: COS-7
T1 sequence (P48546 22-466): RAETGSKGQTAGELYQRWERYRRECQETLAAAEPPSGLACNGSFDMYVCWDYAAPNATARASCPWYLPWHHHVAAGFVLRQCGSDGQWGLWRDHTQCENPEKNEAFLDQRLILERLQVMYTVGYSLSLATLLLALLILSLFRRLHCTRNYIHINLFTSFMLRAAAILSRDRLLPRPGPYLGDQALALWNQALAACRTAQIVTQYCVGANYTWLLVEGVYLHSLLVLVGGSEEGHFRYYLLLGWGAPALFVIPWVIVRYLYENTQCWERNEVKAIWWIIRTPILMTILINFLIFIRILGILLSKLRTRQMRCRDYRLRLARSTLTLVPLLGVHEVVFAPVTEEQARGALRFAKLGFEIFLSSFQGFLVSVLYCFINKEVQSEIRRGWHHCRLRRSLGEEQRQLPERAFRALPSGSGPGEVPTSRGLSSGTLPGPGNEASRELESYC

T2: human GIPR (glucose-dependent insulinotropic polypeptide receptor) (human, UniProt P48546 22-466)
T2 sequence (looked up): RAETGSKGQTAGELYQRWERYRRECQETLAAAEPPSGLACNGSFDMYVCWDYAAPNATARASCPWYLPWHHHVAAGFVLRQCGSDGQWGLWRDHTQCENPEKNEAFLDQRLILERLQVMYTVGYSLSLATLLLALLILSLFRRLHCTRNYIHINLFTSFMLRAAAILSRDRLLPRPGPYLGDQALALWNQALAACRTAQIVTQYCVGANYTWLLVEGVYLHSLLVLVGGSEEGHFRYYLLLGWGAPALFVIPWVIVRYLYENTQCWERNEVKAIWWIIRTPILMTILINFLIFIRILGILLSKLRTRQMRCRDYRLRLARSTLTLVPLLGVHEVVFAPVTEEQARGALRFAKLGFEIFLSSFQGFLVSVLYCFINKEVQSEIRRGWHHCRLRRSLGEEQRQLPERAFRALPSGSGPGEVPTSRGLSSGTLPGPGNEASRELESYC

T3: human GLP-2R (glucagon-like peptide-2 receptor) (human, UniProt O95838 1-553)
T3 sequence (looked up): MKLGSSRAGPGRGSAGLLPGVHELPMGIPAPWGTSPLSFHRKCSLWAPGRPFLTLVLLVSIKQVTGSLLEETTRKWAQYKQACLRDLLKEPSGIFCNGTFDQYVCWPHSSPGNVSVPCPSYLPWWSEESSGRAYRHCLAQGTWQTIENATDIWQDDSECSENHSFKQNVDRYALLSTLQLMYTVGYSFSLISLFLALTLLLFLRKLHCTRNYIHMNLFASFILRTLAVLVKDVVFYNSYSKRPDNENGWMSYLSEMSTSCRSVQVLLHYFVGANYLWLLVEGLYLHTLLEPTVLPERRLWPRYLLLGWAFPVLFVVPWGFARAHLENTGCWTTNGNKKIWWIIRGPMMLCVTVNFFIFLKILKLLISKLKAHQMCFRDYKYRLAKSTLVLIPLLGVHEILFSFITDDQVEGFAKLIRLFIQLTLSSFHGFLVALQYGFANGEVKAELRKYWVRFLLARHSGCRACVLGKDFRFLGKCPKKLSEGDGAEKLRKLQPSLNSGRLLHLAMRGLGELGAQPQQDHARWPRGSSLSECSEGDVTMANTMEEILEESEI


Tests used:
human GIPR = molecular target: T1, human GIPR; test: cAMP assay (HitHunter) in transiently transfected COS-7 cells expressing human GIPR; format: cell-based
Description: (§1) The next day the assay was initiated by washing with HEPES buffered saline (HBS) and followed by an incubation step with assay buffer (HBS added 1 mM isobutyl-1-methylxanthine (IBMX)) for 30 min at 37° C. The ligands were then added and incubated for an additional 30 min at 37° C. After ligand incubation, the HitHunter® CAMP assay (Eurofins DiscoverX, Fremont, […] USA) was carried out according to the manufacturer's instructions. […] The potencies (EC50 values) were determined by nonlinear regression using GraphPad Prism 9 (San Diego, California, USA). Sigmoid curves were fitted logistically. The efficacies (Emax values) were determined by normalization to the highest concentration applied of the endogenous ligand for each receptor.

human GLP-1R = molecular target: T4, human GLP-1R (Homo sapiens, UniProt P43220); test: cAMP assay (HitHunter) in transiently transfected COS-7 cells expressing human GLP-1R; format: cell-based; settings: COS-7; normalized to highest concentration of the endogenous ligand; read-out: Efficacy GLP-1R (Emax)
T4 construct: host or cells: COS-7
T4 sequence (P43220 24-463): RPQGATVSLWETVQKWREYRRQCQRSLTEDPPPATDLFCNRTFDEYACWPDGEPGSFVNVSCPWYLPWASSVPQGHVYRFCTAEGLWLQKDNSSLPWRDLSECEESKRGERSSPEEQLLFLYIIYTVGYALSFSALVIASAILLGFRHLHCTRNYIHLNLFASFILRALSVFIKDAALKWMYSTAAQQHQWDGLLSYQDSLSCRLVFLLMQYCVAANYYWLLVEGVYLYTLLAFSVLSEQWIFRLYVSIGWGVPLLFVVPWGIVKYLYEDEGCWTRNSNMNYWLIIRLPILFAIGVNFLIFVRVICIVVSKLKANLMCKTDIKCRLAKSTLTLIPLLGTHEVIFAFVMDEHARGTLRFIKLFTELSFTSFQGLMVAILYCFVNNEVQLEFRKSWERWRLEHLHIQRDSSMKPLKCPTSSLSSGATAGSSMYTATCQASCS
Description: as §1

[1] = molecular target: T2, human GIPR (glucose-dependent …); test: cell-based or functional assay
[2] = molecular target: T3, human GLP-2R (glucagon-like peptide-2 …); test: cell-based or functional assay
[3] = molecular target: human GLP-1R (glucagon-like peptide-1 receptor) (human, UniProt P43220 24-463); test: cell-based or functional assay

Molecule	Emax (human GIPR; COS-7, normalized to highest concentration of the endogenous ligand, read-out: Efficacy GIPR (Emax)) [%]	EC50 (human GIPR; cAMP, COS-7 cells, human GIPR) [nM]	Emax (human GLP-1R) [%]	EC50 (nM) GIPR [1] [nM]	Efficacy GIPR [1]	pEC50 GIPR [1]	Efficacy GLP-2R [2]	logEC50 GLP-2R [2]	EC50 (nM) GLP-1R [3] [nM]	Efficacy GLP-1R [3]	logEC50 GLP-1R [3]	EC50 (nM) GLP-2R [2] [nM]
CCCCCCCCCC(=O)NCCCC[C@H](NC(=O)[C@@H](NC(=O)[C@@H](NC(=O)[C@H](CCCCN)NC(=O)[C@@H](NC(=O)[C@H](CCC(N)=O)NC(=O)[C@@H](NC(=O)[C@H](CC(C)C)NC(=O)[C@H](Cc1c[nH]c2ccccc12)NC(=O)[C@H](CC(N)=O)NC(=O)[C@@H](NC(=O)[C@H](Cc1ccccc1)NC(=O)[C@H](CC(=O)O)NC(=O)[C@H](CCCNC(=N)N)NC(=O)[C@H](C)NC(=O)[C@H](C)NC(=O)[C@@H](NC(=O)[C@H](CC(N)=O)NC(=O)[C@H](CC(=O)O)NC(=O)[C@H](CC(C)C)NC(=O)[C@@H](NC(=O)[C@@H](NC(=O)[C@H](CO)NC(=O)[C@H](Cc1ccc(O)cc1)NC(=O)[C@H](CC(=O)O)NC(=O)[C@H](CO)NC(=O)[C@@H](NC(=O)[C@H](Cc1ccccc1)NC(=O)[C@@H](NC(=O)CNC(=O)[C@H](CC(=O)O)NC(=O)C(C)(C)NC(=O)[C@@H](N)Cc1c[nH]cn1)[C@@H](C)O)[C@@H](C)CC)[C@@H](C)O)[C@@H](C)CC)[C@@H](C)CC)[C@@H](C)CC)[C@@H](C)CC)[C@@H](C)O)[C@@H](C)CC)[C@@H](C)O)C(N)=O [Compound 15] (H-H[Aib]DGTFISDYSTILDNIAARDFINWLIQTKITK(Decanoyl)-NH2; N-terminus assumed)	98	0.794	90	–	–	–	–	–	–	–	–	–
H[Aib]DGTFISDYSIILDNLAARDFINWLIQTKITK(Decanoyl)-NH2 [Compound 10]	–	–	–	0.501	127	9.3	103	8	3.98	99	8.4	–
H[Aib]EGTFISDYSTILDNLAARDFINWLIQTKITK(Decanoyl)-NH2 [Compound 11]	–	–	–	13.6	89	7.9	68	7.6	39.8	76	7.4	25.1
Y[Aib]DGTFISDYSTILDNLAARDFINWLIQTKITK(Decanoyl)-NH2 (N-terminus assumed; SMILES CCCCCCCCCC(=O)NCCCC[C@H](NC(=O)[C@@H](NC(=O)[C@@H](NC(=O)[C@H](CCCCN)NC(=O)[C@@H](NC(=O)[C@H](CCC(N)=O)NC(=O)[C@@H](NC(=O)[C@H](CC(C)C)NC(=O)[C@H](Cc1c[nH]c2ccccc12)NC(=O)[C@H](CC(N)=O)NC(=O)[C@@H](NC(=O)[C@H](Cc1ccccc1)NC(=O)[C@H](CC(=O)O)NC(=O)[C@H](CCCNC(=N)N)NC(=O)[C@H](C)NC(=O)[C@H](C)NC(=O)[C@H](CC(C)C)NC(=O)[C@H](CC(N)=O)NC(=O)[C@H](CC(=O)O)NC(=O)[C@H](CC(C)C)NC(=O)[C@@H](NC(=O)[C@@H](NC(=O)[C@H](CO)NC(=O)[C@H](Cc1ccc(O)cc1)NC(=O)[C@H](CC(=O)O)NC(=O)[C@H](CO)NC(=O)[C@@H](NC(=O)[C@H](Cc1ccccc1)NC(=O)[C@@H](NC(=O)CNC(=O)[C@H](CC(=O)O)NC(=O)C(C)(C)NC(=O)[C@@H](N)Cc1ccc(O)cc1)[C@@H](C)O)[C@@H](C)CC)[C@@H](C)O)[C@@H](C)CC)[C@@H](C)CC)[C@@H](C)CC)[C@@H](C)O)[C@@H](C)CC)[C@@H](C)O)C(N)=O) [Compound 16]	–	–	–	1	99	9	93	8.1	56.2	59	7.3	8.9
HXDGTFISDYSTILDNLAARDFIEWLIQTKITK (Aib at position 2; K33 acylated with C10, K(C10); C-terminal amide (-NH2)) [Compound 9]	–	–	–	0.708	104	9.2	108	8	5.62	105	8.3	–
HXDGTFISDYSTILDNLAARDFINWLIQTKITK (Aib at position 2; K33 acylated with C10 via γGlu linker, K(γGlu-C10); C-terminal amide (-NH2)) [Compound 17]	–	–	–	–	97	–	92	–	–	107	–	–
HXDGTFISDYSTXLDNLAARDFINWLIQTKITK (Aib at positions 2 and 13; K33 acylated with C10, K(C10); C-terminal amide (-NH2)) [Compound 12]	–	–	–	–	107	–	77	–	–	76	–	–
H[Aib]DGTFISDYSTILDALAARDFINWLIQTKITK(Decanoyl)-NH2 (N-terminus assumed; SMILES CCCCCCCCCC(=O)NCCCC[C@H](NC(=O)[C@@H](NC(=O)[C@@H](NC(=O)[C@H](CCCCN)NC(=O)[C@@H](NC(=O)[C@H](CCC(N)=O)NC(=O)[C@@H](NC(=O)[C@H](CC(C)C)NC(=O)[C@H](Cc1c[nH]c2ccccc12)NC(=O)[C@H](CC(N)=O)NC(=O)[C@@H](NC(=O)[C@H](Cc1ccccc1)NC(=O)[C@H](CC(=O)O)NC(=O)[C@H](CCCNC(=N)N)NC(=O)[C@H](C)NC(=O)[C@H](C)NC(=O)[C@H](CC(C)C)NC(=O)[C@H](C)NC(=O)[C@H](CC(=O)O)NC(=O)[C@H](CC(C)C)NC(=O)[C@@H](NC(=O)[C@@H](NC(=O)[C@H](CO)NC(=O)[C@H](Cc1ccc(O)cc1)NC(=O)[C@H](CC(=O)O)NC(=O)[C@H](CO)NC(=O)[C@@H](NC(=O)[C@H](Cc1ccccc1)NC(=O)[C@@H](NC(=O)CNC(=O)[C@H](CC(=O)O)NC(=O)C(C)(C)NC(=O)[C@@H](N)Cc1c[nH]cn1)[C@@H](C)O)[C@@H](C)CC)[C@@H](C)O)[C@@H](C)CC)[C@@H](C)CC)[C@@H](C)CC)[C@@H](C)O)[C@@H](C)CC)[C@@H](C)O)C(N)=O) [Compound 5]	–	–	–	0.158	111	9.8	110	8.7	1.78	105	8.8	–
H[Aib]DGTFISDYSTELDNLAARDFINWLIQTKITK(Decanoyl)-NH2 (N-terminus assumed; SMILES CCCCCCCCCC(=O)NCCCC[C@H](NC(=O)[C@@H](NC(=O)[C@@H](NC(=O)[C@H](CCCCN)NC(=O)[C@@H](NC(=O)[C@H](CCC(N)=O)NC(=O)[C@@H](NC(=O)[C@H](CC(C)C)NC(=O)[C@H](Cc1c[nH]c2ccccc12)NC(=O)[C@H](CC(N)=O)NC(=O)[C@@H](NC(=O)[C@H](Cc1ccccc1)NC(=O)[C@H](CC(=O)O)NC(=O)[C@H](CCCNC(=N)N)NC(=O)[C@H](C)NC(=O)[C@H](C)NC(=O)[C@H](CC(C)C)NC(=O)[C@H](CC(N)=O)NC(=O)[C@H](CC(=O)O)NC(=O)[C@H](CC(C)C)NC(=O)[C@H](CCC(=O)O)NC(=O)[C@@H](NC(=O)[C@H](CO)NC(=O)[C@H](Cc1ccc(O)cc1)NC(=O)[C@H](CC(=O)O)NC(=O)[C@H](CO)NC(=O)[C@@H](NC(=O)[C@H](Cc1ccccc1)NC(=O)[C@@H](NC(=O)CNC(=O)[C@H](CC(=O)O)NC(=O)C(C)(C)NC(=O)[C@@H](N)Cc1c[nH]cn1)[C@@H](C)O)[C@@H](C)CC)[C@@H](C)O)[C@@H](C)CC)[C@@H](C)CC)[C@@H](C)O)[C@@H](C)CC)[C@@H](C)O)C(N)=O) [Compound 13]	–	–	–	7.94	117	8.1	86	7.6	25.1	85	7.6	25.1
